# Fewer inactive variants are shown than the library holds.
# B1: TPR 5TU (parent)
# chain: GGAUCUUCUCGAUCUAACAAAAAAGACAAAUCUGCCACAAAGCUUGAGAGCAUCUUCGGAUGCAGAGGCGGCAGCCUUCGGUGGCGCGAUAGCGCCAACGUUCUCAACUAUGACACGCAAAACGCGUGCUCCGUUGAAUGGAGUUUAUCAUG
# Variants of: B1
# Assay: polymerase ribozyme fitness, log enrichment relative to wild type (log ratio); higher = more active; in vitro selection for triplet polymerase activity
# Outline: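 A single round of triplicate in vitro selection, including frozen incubation at −7 °C, was applied to PCR-built, transcribed mutant libraries of each subunit of a heterodimeric triplet polymerase ribozyme. Illumina sequencing of input and output libraries retained genotypes with ≥10 input reads and ≥1 read per output. Fitness is the base-2 logarithm of genotype enrichment divided by wild-type enrichment, from inverse-variance-weighted replicate averages.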
row,Variant,polymerase ribozyme fitness (log ratio)
1,C43U G46C G83U,≤ -4.2
2,U45A C93U A147U,-2.81
3,C43U C95A,-4.15
4,U44A C57A U82C C95A,≤ -4.2
5,U45G C87U U101C,-3.99
6,U45A G92C U144A,-3.41
7,U45A G84A,-3.44
8,C43U G86U,-4.15
9,U45G G68U,≤ -4.2
10,U45G C87U U139A,≤ -4.2
11,G46A G67A G84U A97G C99U C116U,≤ -4.2
12,U45G U61G C87G G88C C118G C129G G141A,≤ -4.2
13,G46A C69A,-3.61
14,G46A C54G C95U,-2.17
15,U45G A52U,-3.15
16,C43U A138C,≤ -4.2
17,G46C C75U G88A A106U C116G,≤ -4.2
18,U45A A73G G83C C85U,≤ -4.2
19,U44A A52C C54A G92A G141C,≤ -4.2
20,C43U U45A C63U G81A C95G U111A,≤ -4.2
21,G46A C51G U56A G88U G141A,≤ -4.2
22,U44G A89U U144C,≤ -4.2
23,U44G A47C A66G G67A C87A C96G U145A,≤ -4.2
24,U45A G65C A73G G84A A142G,≤ -4.2

row,Variant,polymerase ribozyme fitness (log ratio)
1,U44G C75G G88C,≤ -4.2
2,U44C C85A A91U U127G,≤ -4.2
3,U45C U55A,-1.08
4,U45C C93A,-3.52
5,U45A C116U,-2.44
6,U44A U53A G58U G83U U102G A122U,≤ -4.2
7,U45A A47U G65C A66U G86C C87G C131G,≤ -4.2
8,U45C G48C C99A G143A U148C,≤ -4.2
9,C43U G67U,≤ -4.2
10,U44A C72U A73G G86U A138C,≤ -4.2
11,C43U A52U C85G G133U,≤ -4.2
12,U45G C69A,-1.95
13,U45G G84U,-1.97
14,U45A C54U U61A C85U,≤ -4.2
15,U44G U56A C79A G124U,≤ -4.2
16,U44A G83U,-3.94
17,U44G C51U G74A G94C A120U C149G,≤ -4.2
18,C43U A106G,≤ -4.2
19,U44G A73U C85U U109G,≤ -4.2
20,U45A A121G C131G G140U,≤ -4.2
21,U44A U53A C79G C85G A119G U135G,≤ -4.2
22,C43U C54A U55C C85U C99G A147G,≤ -4.2
23,U44A G88C,≤ -4.2
24,U45A C96U,-2.86

row,Variant,polymerase ribozyme fitness (log ratio)
1,U45A C96A,-2.56
2,U44A G50U G59A C85A C99G G126U,≤ -4.2
3,G46A C76A C96U G141C,≤ -4.2
4,G46A C85A,-2.16
5,U45G C76A G86A G141C C149G,≤ -4.2
6,U44A G80A A121U U144A,≤ -4.2
7,U45G C54U A119U U146G,-2.19
8,U44G U135A,-3.83
9,U45A G117U,-3.08
10,G46A C63G G67C C85U,≤ -4.2
11,U45A U55A C93U,-3.88
12,U45A U148G C149G,≤ -4.2
13,G46C A47G G71A C85U G88C,≤ -4.2
14,U44A C87A U90C C93G C105G A122G,≤ -4.2
15,U45C G70C A91G C99U G136C,≤ -4.2
16,U45A G140U,-4.19
17,G46C A49U C72U C116U,≤ -4.2
18,U44A C51U C76U C95A,≤ -4.2
19,C43U C125G U151G,≤ -4.2
20,C43U C85A C87U G94C,≤ -4.2
21,U45A A49U,≤ -4.2
22,G46A U53G,-3.49
23,U44A C79G C85A U111G G133C,≤ -4.2
24,C43U U61A G86U A142G A147U,≤ -4.2

row,Variant,polymerase ribozyme fitness (log ratio)
1,U45A A91C C95G A142U,≤ -4.2
2,U45A A66U G71A,≤ -4.2
3,G46A G81A G136A U146A,0.373
4,U45A A52G U82G A115G G136U G141A U151G,≤ -4.2
5,C43U A91U A98G C99U U102G,≤ -4.2
6,U45A A47U G80U U90A,≤ -4.2
7,C43U U56A C87A G152U,≤ -4.2
8,C43U G50U U109A A150U,≤ -4.2
9,U44A G80A A138U A150G,≤ -4.2
10,C43U G50C C75G C79G G84A,≤ -4.2
11,U44A U104A A115G,≤ -4.2
12,U45A G50U G83U C87U C103U C105A,≤ -4.2
13,U45A G86A A142G,≤ -4.2
14,U44A C72G C79A A150C,≤ -4.2
15,U45A A115C,≤ -4.2
16,U45A G84A A115C,-3.88
17,U45A C54A C95A A113G C129A,≤ -4.2
18,C43U U55A C87U,≤ -4.2
19,U45A U82A A106G A122G U148G,≤ -4.2
20,U44G G92U,≤ -4.2
21,U45G C76A C129G U134G,≤ -4.2
22,U45A U55A U61A C63A U77A C131A A150G U151A,≤ -4.2
23,C43U G68A G86U,≤ -4.2
24,U44A A47U C72G G86C A91C,≤ -4.2

row,Variant,polymerase ribozyme fitness (log ratio)
1,C43U G81C G88A G133C,≤ -4.2
2,U45A C85U,-3.1
3,U44C G50U U101G C131U U139C C149U,≤ -4.2
4,U44C G94C U146A,≤ -4.2
5,U44A G50A C79A C99U U102G C108U,≤ -4.2
6,G46A U61G C103A C118G,≤ -4.2
7,U45A G88C,≤ -4.2
8,U45A C51U G74A C95A U135G,≤ -4.2
9,C43U C57U,-3.79
10,U45G A47U A49C U61A C76A C87A U146G,≤ -4.2
11,U44A G50C U53A C87A A106G A107U,≤ -4.2
12,G46A C96U U101A,-2.59
13,U44G G46C A60C U61A C95U,≤ -4.2
14,U45A C51A G84A,≤ -4.2
15,C43U A49C C96A A107C A113U,≤ -4.2
16,U45A C51U C54U G92U,-3.95
17,G46A U55A,-0.993
18,U44A A47C,≤ -4.2
19,G46A G84U C99A A110C C114U U146C,≤ -4.2
20,U44A U45A C51U C95A C103G,≤ -4.2
21,U45G C103A A150U,≤ -4.2
22,C43U A47G A64C G67U C96U G141A,≤ -4.2
23,G46A U53A G59A A66C U90C A91U C108G G133C,≤ -4.2
24,U45A U56G A73G C96G C99G A107U G140A,≤ -4.2

row,Variant,polymerase ribozyme fitness (log ratio)
1,C43U G50U U55A C76U G136A G152U,≤ -4.2
2,C43U A52C C57U G83A A89C,≤ -4.2
3,U45A G58A G59C A60G G133A,≤ -4.2
4,U45G C51U C95A C125U,-3.64
5,U44A U53G C105U C116G G141C,≤ -4.2
6,C43U G84U A113U,≤ -4.2
7,U45G U56A C69A C96A C131U G136U,-3.1
8,U45A A47C,-3.93
9,U45G G88A,-4.02
10,G46A A47G G48A G50C G136A,≤ -4.2
11,U44A G48C C87A A115U C125A,≤ -4.2
12,U45A C72U,≤ -4.2
13,U45A C57A C96U G124A,-3.11
14,G46A U56G A91G U148A,≤ -4.2
15,G46C C54U C95U C116U C118G,-2.25
16,U45G G48A G88C A106G,≤ -4.2
17,U44G G88C C108G U144C C149U,≤ -4.2
18,U44G U45G C54U C87A,≤ -4.2
19,U45A C72A G86U C99U,≤ -4.2
20,G46A C93U,-1.21
21,U44A C76U,-4.19
22,U45G U53A U56C G84A C125U A137G G140U C149A,≤ -4.2
23,U45G C85G,-3.44
24,G46A C85G A106C C125A,≤ -4.2

row,Variant,polymerase ribozyme fitness (log ratio)
1,G46A G84A,-2.74
2,G46A C129U,-3.61
3,C43U G83U G92A,≤ -4.2
4,G46C A66C C85U C93G C118U,≤ -4.2
5,U45A A73U,≤ -4.2
6,G46A U53A G83A U90A G92A U134A,≤ -4.2
7,G46A G84A A119C G136A A150G,-3.68
8,C43U G62A A119U U134A,≤ -4.2
9,U44A U53G G67A U78A G81C G88A G92C A138U,≤ -4.2
10,U45A G67C G84U C108U A120U,≤ -4.2
11,G46A C54G G86U G117A A119G A137G G141C G143U,≤ -4.2
12,U45A G88C A113C U134A,≤ -4.2
13,U45A G65A G86U,≤ -4.2
14,G46A G50C U56A G83U A147C,≤ -4.2
15,C43U A73G,≤ -4.2
16,U44G G48A G84A,≤ -4.2
17,U44G U134C,-4.1
18,U44A A89U G92C C95U,≤ -4.2
19,U45A C76U A98U G100C U101G A106U,-4
20,U45G G84U A113U,-4.1
21,G46A C99U G141A,≤ -4.2
22,C43U U56A C72A C85A,≤ -4.2
23,G46C C85U A110U,-4.17

# — the RNAGym collection of RNA variant scans (doi:10.1073/pnas.2313332121)
